Six variants from IntAct's records for PubMed 31515488 can be followed below.

To fix the notation:
B1: Transmembrane protein 140 (Homo sapiens), Q9NV12 (parent)
chain: MAGPRPRWRDQLLFMSIIVLVIVVICLMFYALLWEAGNLTDLPNLRIGFYNFCLWNEDTSTLQCHQFPELEALGVPRVGLGLARLGVYGSLVLTLFAPQPLLLAQCNSDERAWRLAVGFLAVSSVLLAGGLGLFLSYVWKWVRLSLPGPGFLALGSAQALLILLLIAMAVFPLRAERAESKLESC
partner: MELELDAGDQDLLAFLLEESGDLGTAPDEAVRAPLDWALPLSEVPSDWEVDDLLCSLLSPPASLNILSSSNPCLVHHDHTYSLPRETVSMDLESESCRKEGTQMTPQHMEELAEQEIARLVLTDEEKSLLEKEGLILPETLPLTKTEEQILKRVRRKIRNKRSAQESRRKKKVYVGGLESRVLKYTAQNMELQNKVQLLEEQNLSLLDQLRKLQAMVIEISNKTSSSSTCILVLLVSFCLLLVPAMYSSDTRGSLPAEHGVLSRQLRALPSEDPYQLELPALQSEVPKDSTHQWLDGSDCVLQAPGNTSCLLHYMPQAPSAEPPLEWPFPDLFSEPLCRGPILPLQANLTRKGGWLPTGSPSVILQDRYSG
B2: F-box/WD repeat-containing protein 1A (Homo sapiens), Q9Y297 (parent)
chain: MDPAEAVLQEKALKFMCSMPRSLWLGCSSLADSMPSLRCLYNPGTGALTAFQNSSEREDCNNGEPPRKIIPEKNSLRQTYNSCARLCLNQETVCLASTAMKTENCVAKTKLANGTSSMIVPKQRKLSASYEKEKELCVKYFEQWSESDQVEFVEHLISQMCHYQHGHINSYLKPMLQRDFITALPARGLDHIAENILSYLDAKSLCAAELVCKEWYRVTSDGMLWKKLIERMVRTDSLWRGLAERRGWGQYLFKNKPPDGNAPPNSFYRALYPKIIQDIETIESNWRCGRHSLQRIHCRSETSKGVYCLQYDDQKIVSGLRDNTIKIWDKNTLECKRILTGHTGSVLCLQYDERVIITGSSDSTVRVWDVNTGEMLNTLIHHCEAVLHLRFNNGMMVTCSKDRSIAVWDMASPTDITLRRVLVGHRAAVNVVDFDDKYIVSASGDRTIKVWNTSTCEFVRTLNGHKRGIACLQYRDRLVVSGSSDNTIRLWDIECGACLRVLEGHEELVRCIRFDNKRIVSGAYDGKIKVWDLVAALDPRAPAGTLCLRTLVEHSGRVFRLQFDEFQIVSSSHDDTILIWDFLNDPAAQAEPPRSPSRTYTYISR
partner: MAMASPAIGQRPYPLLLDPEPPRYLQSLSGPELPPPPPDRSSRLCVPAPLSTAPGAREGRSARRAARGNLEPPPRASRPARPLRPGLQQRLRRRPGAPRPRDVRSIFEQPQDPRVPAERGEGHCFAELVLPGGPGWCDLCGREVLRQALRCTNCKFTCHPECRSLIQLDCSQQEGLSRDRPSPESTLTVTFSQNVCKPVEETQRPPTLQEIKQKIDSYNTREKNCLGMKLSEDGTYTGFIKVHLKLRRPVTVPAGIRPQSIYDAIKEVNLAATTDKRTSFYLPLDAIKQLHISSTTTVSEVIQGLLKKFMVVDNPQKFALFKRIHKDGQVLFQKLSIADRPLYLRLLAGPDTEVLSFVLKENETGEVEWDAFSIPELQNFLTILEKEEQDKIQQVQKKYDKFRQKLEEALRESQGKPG

In one experiment the parent is B1. Conditions: with creb3_human CREB3, O43889.
A112E: the “effect of a mutation on the interaction” value was “with no effect”.

Variants of B2 are the subject of another experiment. Conditions: with rasf5_human RASSF5, Q8WWW0.
In the case of I439V, the “effect of a mutation on the interaction” value is recorded as “disrupting interaction strength”.
Turning to R594H, the “effect of a mutation on the interaction” value is given as “with no effect”.
In the case of P592H, the “effect of a mutation on the interaction” value is reported as “with no effect”.
The same measure, in the same setting: then T601S, with “with no effect”.
As for L8M, the “effect of a mutation on the interaction” value is “with no effect”.
